Results as given in patent publication US20240209061A1, “FUSION PROTEINS AND USES THEREOF” (Pfizer Inc., priority 2020, published 2024).

Experiments:
[1] = Thermal forced aggregation (SEC); assay type: physicochemical; conditions: Table 11, 24 hours, PBS
Protocol: To assess the aggregation propensity of variant CD80-Fc fusion proteins, 1 mg/ml of CD80-Fc fusion protein was incubated in PBS at increasing temperatures for 24 hours. The samples were analyzed by SEC on an Agilent 1100 (Agilent Technologies, Germany) HPLC system using a YMC-Pack Diol-200 (YMC, Germany) analytical size exclusion chromatography column and PBS supplemented to 400 mM NaCl as running buffer. % aggregation was calculated from the loss of intact peak area. […] ND=Not Determined.

[2] = test system: peripheral blood mononuclear cells (PBMC); test: RESTORE cytokine release assay in absence of TCR stimulation; assay type: cell-based, human; parameters: IFNγ: unit not given beside the values; conditions: Table 20
Protocol: The ability of variant CD80-Fc fusion proteins to promote cytokine release in the absence of TCR stimulation was assessed in the RESTORE (RESetting T cells to Original Reactivity) assay (Römer et al, Blood, 2011). Freshly isolated peripheral blood mononuclear cells (PBMC) from whole blood of several healthy donors were cultured for 48 hours at […] within RPMI1640 media supplemented with 10% autologous plasma, 10 mM HEPES, 1× GlutaMAX, 1× PenStrep, beta2-mercaptoethanol, NEAA and sodium pyruvate. Following the 48-hour incubation, PBMC were pelleted and resuspended at a final concentration of 10^6/ml with indicated soluble drug. Treatment was allowed for 48 hours then supernatant was harvested and assessed in IL-2 and IFNγ ELISA according to manufacturer's protocol (BioLegend).
Positive controls included CD28 superagonist anti-CD28 clone TGN1412 as IgG1 and IgG4 isotypes and anti-CD3. […] Values shown are the average of 3 technical replicates. D=Donor.

CD80-D90Q-Fc: variant CD80 ECD (D90Q) fused to human IgG1 Fc
% aggregation ([1]; 40° C.): 81.6% | % aggregation ([1]; 45.3° C.): 89.5% | % aggregation ([1]; 49.4° C.): 89.5% | IFNγ ([2]; D222, 1 μg/ml): 3.3 | IFNγ ([2]; D222, 10 μg/ml): 4.0 | IL-2 ([2]; D222, 10 μg/ml): 9.0 | IFNγ ([2]; D281, 1 μg/ml): 3.3 | IL-2 ([2]; D281, 1 μg/ml): 2.3 | IFNγ ([2]; D281, 10 μg/ml): 3.3 | IL-2 ([2]; D281, 10 μg/ml): 2.3 | IFNγ ([2]; D462, 1 μg/ml): 8.3 | IL-2 ([2]; D462, 1 μg/ml): 1.7 | IFNγ ([2]; D462, 10 μg/ml): 10.3 | IL-2 ([2]; D462, 10 μg/ml): 1.7 | IFNγ ([2]; D547, 1 μg/ml): 3.3 | IL-2 ([2]; D547, 1 μg/ml): 9.0 | IFNγ ([2]; D547, 10 μg/ml): 7.7 | IL-2 ([2]; D547, 10 μg/ml): 3.3
